Measured values taken from patent US20260167699A1 (Chugai, published 2026).
Changes are numbered by the printed parent chain. Each block holds one binder with its values, some of them ahead of it.

Columns and labels:
Experiment in all cases: SPR; % of GpH7-A5/GpH7-B3/GpL16-k0
[1] = biological target: T1, FcγRIa extracellular domain with C-terminal His tag (human, UniProt P12314 16-292)
T1 construct: extracellular domain; also called 1a; CD64

[2] = biological target: T2, FcγRIIa(R) extracellular domain with C-terminal His tag (human, UniProt P12318 34-217)
T2 construct: extracellular domain; R131 allotype; also called 2aR; CD32
T2 sequence: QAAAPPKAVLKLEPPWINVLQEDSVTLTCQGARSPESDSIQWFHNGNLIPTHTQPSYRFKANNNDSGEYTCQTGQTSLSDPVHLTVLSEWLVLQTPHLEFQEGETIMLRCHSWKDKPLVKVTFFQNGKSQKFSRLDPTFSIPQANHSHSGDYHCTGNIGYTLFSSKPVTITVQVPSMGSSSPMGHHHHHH

[3] = biological target: T3, FcγRIIa(H) extracellular domain with C-terminal His tag (human, UniProt P12318 34-217)
T3 construct: extracellular domain; H131 allotype; also called 2aH; CD32
T3 sequence: T2 sequence with R134H

[4] = biological target: T4, FcγRIIb extracellular domain with C-terminal His tag (human, UniProt P31994 43-217)
T4 construct: extracellular domain; also called 2b; CD32
T4 sequence: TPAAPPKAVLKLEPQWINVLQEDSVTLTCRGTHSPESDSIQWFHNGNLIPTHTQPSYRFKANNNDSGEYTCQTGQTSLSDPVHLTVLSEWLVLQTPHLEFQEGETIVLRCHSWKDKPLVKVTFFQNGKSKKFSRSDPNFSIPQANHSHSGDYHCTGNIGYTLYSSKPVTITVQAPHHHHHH

[5] = biological target: T5, FcγRIIIa extracellular domain with C-terminal His tag (human, UniProt P08637 17-208)
T5 construct: extracellular domain; also called 3a; CD16
T5 sequence (P08637 other isoform, or with tags, fused parts or gaps): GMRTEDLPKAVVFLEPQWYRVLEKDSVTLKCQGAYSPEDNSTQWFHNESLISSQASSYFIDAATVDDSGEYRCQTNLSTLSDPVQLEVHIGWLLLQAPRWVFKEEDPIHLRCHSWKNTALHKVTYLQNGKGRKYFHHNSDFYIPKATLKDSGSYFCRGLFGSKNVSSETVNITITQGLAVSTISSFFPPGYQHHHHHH

T1 sequence (P12314 other isoform, or with tags, fused parts or gaps): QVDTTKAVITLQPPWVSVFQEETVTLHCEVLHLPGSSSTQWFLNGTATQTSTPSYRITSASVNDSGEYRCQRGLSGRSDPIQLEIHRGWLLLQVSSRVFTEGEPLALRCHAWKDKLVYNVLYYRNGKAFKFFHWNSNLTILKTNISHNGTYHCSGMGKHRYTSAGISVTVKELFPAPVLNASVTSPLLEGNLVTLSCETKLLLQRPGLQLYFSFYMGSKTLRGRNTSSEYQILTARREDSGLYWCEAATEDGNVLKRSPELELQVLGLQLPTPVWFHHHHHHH

He/Con 1a [1]: 100%
He/Con 2aR [2]: 149%
He/Con 2aH [3]: 116%
He/Con 2b [4]: 141%
He/Con 3a [5]: 140%
B2: GpH7-A5/GpH7-B3 variant K334_19Q/GpL16-k0 (antibody, human IgG1, kappa)
heavy 1: not shown
heavy 2: not shown
light: DIVMTQSPLSLPVTPGEPASISCQASESLVHSNRNTYLHWYLQKPGQSPQLLIYKVSNRFSGVPDRFSGSGSGTDFTLKISRVEAEDVGVYYCSQNTHVPPTFGQGTKVEIERTVAAPSVFIFPPSDEQLKSGTASVVCLLNNFYPREAKVQWKVDNALQSGNSQESVTEQDSKDSTYSLSSTLTLSKADYEKHKVYACEVTHQGLSSPVTKSFNRGEC
notes: heterodimerized IgG1 (He Ab), mutation in one H chain only; also called He Ab

He/Con 1a [1]: 99%
He/Con 2aR [2]: 152%
He/Con 2aH [3]: 114%
He/Con 2b [4]: 148%
He/Con 3a [5]: 140%
B5: GpH7-A5/GpH7-B3 variant K334_18N/GpL16-k0 (antibody, human IgG1, kappa)
heavy 1: not shown
heavy 2: not shown
light: B2 light
notes: as for B2

He/Con 1a [1]: 104%
He/Con 2aR [2]: 114%
He/Con 2aH [3]: 85.4%
He/Con 2b [4]: 132%
He/Con 3a [5]: 66.9%
B8: GpH7-A5/GpH7-B3 variant P331_03V/GpL16-k0 (antibody, human IgG1, kappa)
heavy 1: not shown
heavy 2: not shown
light: B2 light
notes: as for B2

He/Con 1a [1]: 105%
He/Con 2aR [2]: 105%
He/Con 2aH [3]: 93.9%
He/Con 2b [4]: 110%
He/Con 3a [5]: 82.5%
B10: GpH7-A5/GpH7-B3 variant P331_02A/GpL16-k0 (antibody, human IgG1, kappa)
heavy 1: not shown
heavy 2: not shown
light: B2 light
notes: as for B2

He/Con 1a [1]: 99.3%
He/Con 2aR [2]: 149%
He/Con 2aH [3]: 119%
He/Con 2b [4]: 146%
He/Con 3a [5]: 138%
B13: GpH7-A5/GpH7-B3 variant K334_16H/GpL16-k0 (antibody, human IgG1, kappa)
heavy 1: not shown
heavy 2: not shown
light: B2 light
notes: as for B2

He/Con 1a [1]: 99.9%
He/Con 2aR [2]: 143%
He/Con 2aH [3]: 112%
He/Con 2b [4]: 134%
He/Con 3a [5]: 132%
B19: GpH7-A5/GpH7-B3 variant K334_20W/GpL16-k0 (antibody, human IgG1, kappa)
heavy 1: not shown
heavy 2: not shown
light: B2 light
notes: as for B2

He/Con 1a [1]: 99.1%
He/Con 2aR [2]: 148%
He/Con 2aH [3]: 122%
He/Con 2b [4]: 141%
He/Con 3a [5]: 145%
B21: GpH7-A5/GpH7-B3 variant K334_15Y/GpL16-k0 (antibody, human IgG1, kappa)
heavy 1: not shown
heavy 2: not shown
light: B2 light
notes: as for B2

He/Con 1a [1]: 108%
He/Con 2aR [2]: 110%
He/Con 2aH [3]: 87.7%
He/Con 2b [4]: 122%
He/Con 3a [5]: 70.7%
B22: GpH7-A5/GpH7-B3 variant P331_04F/GpL16-k0 (antibody, human IgG1, kappa)
heavy 1: not shown
heavy 2: not shown
light: B2 light
notes: as for B2

The remaining lines, values behind:

B1: GpH7-A5/GpH7-B3 variant I336_14T/GpL16-k0 (antibody, human IgG1, kappa)
heavy 1: not shown
heavy 2: not shown
light: B2 light
notes: as for B2
He/Con 1a [1]: 108%
He/Con 2aR [2]: 102%
He/Con 2aH [3]: 103%
He/Con 2b [4]: 97.8%
He/Con 3a [5]: 103%

B3: GpH7-A5/GpH7-B3 variant K334_03V/GpL16-k0 (antibody, human IgG1, kappa)
heavy 1: not shown
heavy 2: not shown
light: B2 light
notes: as for B2
He/Con 1a [1]: 99.1%
He/Con 2aR [2]: 160%
He/Con 2aH [3]: 126%
He/Con 2b [4]: 161%
He/Con 3a [5]: 154%

B4: GpH7-A5/GpH7-B3 variant K334_09D/GpL16-k0 (antibody, human IgG1, kappa)
heavy 1: not shown
heavy 2: not shown
light: B2 light
notes: as for B2
He/Con 1a [1]: 101%
He/Con 2aR [2]: 127%
He/Con 2aH [3]: 95.6%
He/Con 2b [4]: 122%
He/Con 3a [5]: 164%

B6: GpH7-A5/GpH7-B3 variant I336_16H/GpL16-k0 (antibody, human IgG1, kappa)
heavy 1: not shown
heavy 2: not shown
light: B2 light
notes: as for B2
He/Con 1a [1]: 104%
He/Con 2aR [2]: 99.1%
He/Con 2aH [3]: 97.4%
He/Con 2b [4]: 93.8%
He/Con 3a [5]: 92.8%

B7: GpH7-A5/GpH7-B3 variant K334_06M/GpL16-k0 (antibody, human IgG1, kappa)
heavy 1: not shown
heavy 2: not shown
light: B2 light
notes: as for B2
He/Con 1a [1]: 99%
He/Con 2aR [2]: 144%
He/Con 2aH [3]: 121%
He/Con 2b [4]: 141%
He/Con 3a [5]: 149%

B9: GpH7-A5/GpH7-B3 variant K334_14T/GpL16-k0 (antibody, human IgG1, kappa)
heavy 1: not shown
heavy 2: not shown
light: B2 light
notes: as for B2
He/Con 1a [1]: 99.2%
He/Con 2aR [2]: 153%
He/Con 2aH [3]: 118%
He/Con 2b [4]: 149%
He/Con 3a [5]: 146%

B11: GpH7-A5/GpH7-B3 variant K334_10E/GpL16-k0 (antibody, human IgG1, kappa)
heavy 1: not shown
heavy 2: not shown
light: B2 light
notes: as for B2
He/Con 1a [1]: 104%
He/Con 2aR [2]: 144%
He/Con 2aH [3]: 113%
He/Con 2b [4]: 148%
He/Con 3a [5]: 186%

B12: GpH7-A5/GpH7-B3 variant I336_15Y/GpL16-k0 (antibody, human IgG1, kappa)
heavy 1: not shown
heavy 2: not shown
light: B2 light
notes: as for B2
He/Con 1a [1]: 106%
He/Con 2aR [2]: 83.1%
He/Con 2aH [3]: 84.6%
He/Con 2b [4]: 74.5%
He/Con 3a [5]: 83.4%

B14: GpH7-A5/GpH7-B3 variant K334_04F/GpL16-k0 (antibody, human IgG1, kappa)
heavy 1: not shown
heavy 2: not shown
light: B2 light
notes: as for B2
He/Con 1a [1]: 99.6%
He/Con 2aR [2]: 150%
He/Con 2aH [3]: 121%
He/Con 2b [4]: 143%
He/Con 3a [5]: 152%

B15: GpH7-A5/GpH7-B3 variant K334_01G/GpL16-k0 (antibody, human IgG1, kappa)
heavy 1: not shown
heavy 2: not shown
light: B2 light
notes: as for B2
He/Con 1a [1]: 98%
He/Con 2aR [2]: 127%
He/Con 2aH [3]: 92.5%
He/Con 2b [4]: 119%
He/Con 3a [5]: 125%

B16: GpH7-A5/GpH7-B3 variant K334_13S/GpL16-k0 (antibody, human IgG1, kappa)
heavy 1: not shown
heavy 2: not shown
light: B2 light
notes: as for B2
He/Con 1a [1]: 99.3%
He/Con 2aR [2]: 149%
He/Con 2aH [3]: 116%
He/Con 2b [4]: 143%
He/Con 3a [5]: 150%

B17: GpH7-A5/GpH7-B3 variant K334_07I/GpL16-k0 (antibody, human IgG1, kappa)
heavy 1: not shown
heavy 2: not shown
light: B2 light
notes: as for B2
He/Con 1a [1]: 98.7%
He/Con 2aR [2]: 155%
He/Con 2aH [3]: 126%
He/Con 2b [4]: 154%
He/Con 3a [5]: 156%

B18: GpH7-A5/GpH7-B3 variant I336_19Q/GpL16-k0 (antibody, human IgG1, kappa)
heavy 1: not shown
heavy 2: not shown
light: B2 light
notes: as for B2
He/Con 1a [1]: 107%
He/Con 2aR [2]: 70.9%
He/Con 2aH [3]: 76.4%
He/Con 2b [4]: 63.6%
He/Con 3a [5]: 88.4%

B20: GpH7-A5/GpH7-B3 variant K334_02A/GpL16-k0 (antibody, human IgG1, kappa)
heavy 1: not shown
heavy 2: not shown
light: B2 light
notes: as for B2
He/Con 1a [1]: 100%
He/Con 2aR [2]: 143%
He/Con 2aH [3]: 111%
He/Con 2b [4]: 139%
He/Con 3a [5]: 152%

B23: GpH7-A5/GpH7-B3 variant K334_08L/GpL16-k0 (antibody, human IgG1, kappa)
heavy 1: not shown
heavy 2: not shown
light: B2 light
notes: as for B2
He/Con 1a [1]: 99.1%
He/Con 2aR [2]: 145%
He/Con 2aH [3]: 120%
He/Con 2b [4]: 137%
He/Con 3a [5]: 148%

B24: GpH7-A5/GpH7-B3 variant K334_05P/GpL16-k0 (antibody, human IgG1, kappa)
heavy 1: not shown
heavy 2: not shown
light: B2 light
notes: as for B2
He/Con 1a [1]: 98.7%
He/Con 2aR [2]: 141%
He/Con 2aH [3]: 112%
He/Con 2b [4]: 136%
He/Con 3a [5]: 138%

B25: GpH7-A5/GpH7-B3 variant K334_12R/GpL16-k0 (antibody, human IgG1, kappa)
heavy 1: not shown
heavy 2: not shown
light: B2 light
notes: as for B2
He/Con 1a [1]: 98.2%
He/Con 2aR [2]: 151%
He/Con 2aH [3]: 114%
He/Con 2b [4]: 144%
He/Con 3a [5]: 93.5%

B26: GpH7-A5/GpH7-B3 variant I336_18N/GpL16-k0 (antibody, human IgG1, kappa)
heavy 1: not shown
heavy 2: not shown
light: B2 light
notes: as for B2
He/Con 1a [1]: 111%
He/Con 2aR [2]: 110%
He/Con 2aH [3]: 107%
He/Con 2b [4]: 107%
He/Con 3a [5]: 99.4%
